Results as given in patent US20200181261A1 (Bayer, published 2020).
Changes are numbered by the printed parent chain.

B1: TPP-3714 (antibody, human IgG2, kappa)
heavy: QVTLRESGPALVKPTQTLTLTCTFSGFSLSTYGIGVGWIRQPPGKALEWLAHIWWNDNKYYSTSLKTRLTISKDTSKNQVVLTMTNMDPVDTATYYCARISLPYFDYWGQGTLVTVSSASTKGPSVFPLAPCSRSTSESTAALGCLVKDYFPEPVTVSWNSGALTSGVHTFPAVLQSSGLYSLSSVVTVPSSNFGTQTYTCNVDHKPSNTKVDKTVERKCCVECPPCPAPPVAGPSVFLFPPKPKDTLMISRTPEVTCVVVDVSHEDPEVQFNWYVDGVEVHNAKTKPREEQFNSTFRVVSVLTVVHQDWLNGKEYKCKVSNKGLPAPIEKTISKTKGQPREPQVYTLPPSREEMTKNQVSLTCLVKGFYPSDIAVEWESNGQPENNYKTTPPMLDSDGSFFLYSKLTVDKSRWQQGNVFSCSVMHEALHNHYTQKSLSLSPG
light: DIQLTQSPSFLSASVGDRVTITCKASQNVGTAVAWYQQKPGKAPKLLIYSASNRYTGVPSRFSGSGSGTEFTLTISSLQPEDFATYYCQQYSSYPLTFGGGTKVEIKRTVAAPSVFIFPPSDEQLKSGTASVVCLLNNFYPREAKVQWKVDNALQSGNSQESVTEQDSKDSTYSLSSTLTLSKADYEKHKVYACEVTHQGLSSPVTKSFNRGEC
notes: humanized from TPP-2971, human IgG2; also called TPP-2971HU2-hIgG2Kappa
B2: TPP-3821 (antibody, human IgG2, kappa, V domains shown)
VH: QVTLRESGPALVKPTQTLTLTCTFSGFSLSTYGIGVGWIRQPPGKALEWLAHIWWNDNKYYSTSLKTRLTISKDTSKNQVVLTMTNMDPVDTATYYCARISLPYFDYWGQGTLVTVSS
VL: DIQLTQSPSFLSASVGDRVTITCKASQNVGTAVAWYQQKPGKAPKLLIYSASNRYTGVPSRFSGSGSGTEFTLTISSLQPEDFATYYCQQYNNYPLTFGGGTKVEIKR
notes: humanized from TPP-3187, human IgG2; also called 3187HU2-hIgG2Kappa
B3: TPP-3820 (antibody, human IgG2, kappa, V domains shown)
VH: B2 VH with S30T, A46G
VL: B2 VL
notes: humanized from TPP-3187, human IgG2; also called 3187HU1-hIgG2Kappa
B4: TPP-3310 (antibody, human IgG2, kappa)
heavy: B1 heavy with L113T, V114L
light: B1 light
notes: humanized from TPP-2971, human IgG2; also called TPP-2971HU1-hIgG2Kappa
B5: TPP-3705 (antibody, human IgG2, kappa, V domains shown)
VH: EVQLVESGGGLVQPGGSLRLSCAASGFTFSLYQMHWVRQAPGKGLEWVSWISFSGGNTGYADSVKGRFTISRDNSKNTLYLQMNSLRAEDTAVYYCARATGYSSPWYLDPWGQGTLVTVSS
VL: DIQMTQSPSSLSASVGDRVTITCQASHEIDNYLNWYQQKPGKAPKLLIYDAYWLKTGVPSRFSGSGSGTDFTLTISSLQPEDIATYYCQGYDDLSVTFGGGTKVDIKR
notes: also called 090E-M007-A09-Mat1-hIgG2-hIgG2Kappa
B6: TPP-3707 (antibody, human IgG2, kappa, V domains shown)
VH: B5 VH
VL: B5 VL with L54S
notes: also called 090E-M007-A09-Mat2-hIgG2-hIgG2Kappa
B7: TPP-2971 (antibody, mouse IgG1, V domains shown)
VH: QVTLKESGPGILQPSQTLSLTCSFSGFSLSTYGIGVGWIRQPSGKDLEWLAHIWWNDNKYYNTALKSRLTISKDTSNNQVFLKIASVDTADTATYYCARISLPYFDYWGQGTTLTVSS
VL: DIVMTQSQKFMSTSVGDRVSITCKASQNVGTAVAWYQQKPGQSPKLLIYSASNRYTGVPDRFTGSGSGTDFTLTISNMQSEDLADYFCQQYSSYPLTFGAGTKLELK
notes: murine hybridoma antibody, mouse IgG1; also called 792.15H12C9
B8: TPP-3187 (antibody, mouse IgG1, V domains shown)
VH: B7 VH with S30T, D46G
VL: B7 VL with S92N, S93N
notes: murine hybridoma antibody, mouse IgG1; also called 792.15C4F4

The binders below were run against T1, human CEACAM5, extracellular (mature form), R&D Systems 4128-CM (human, UniProt P06731 35-685) (assay: SPR, antibody captured, antigen as analyte).
T1 construct: used biotinylated in some assays; also called TPP-1438; hC5
T1 sequence: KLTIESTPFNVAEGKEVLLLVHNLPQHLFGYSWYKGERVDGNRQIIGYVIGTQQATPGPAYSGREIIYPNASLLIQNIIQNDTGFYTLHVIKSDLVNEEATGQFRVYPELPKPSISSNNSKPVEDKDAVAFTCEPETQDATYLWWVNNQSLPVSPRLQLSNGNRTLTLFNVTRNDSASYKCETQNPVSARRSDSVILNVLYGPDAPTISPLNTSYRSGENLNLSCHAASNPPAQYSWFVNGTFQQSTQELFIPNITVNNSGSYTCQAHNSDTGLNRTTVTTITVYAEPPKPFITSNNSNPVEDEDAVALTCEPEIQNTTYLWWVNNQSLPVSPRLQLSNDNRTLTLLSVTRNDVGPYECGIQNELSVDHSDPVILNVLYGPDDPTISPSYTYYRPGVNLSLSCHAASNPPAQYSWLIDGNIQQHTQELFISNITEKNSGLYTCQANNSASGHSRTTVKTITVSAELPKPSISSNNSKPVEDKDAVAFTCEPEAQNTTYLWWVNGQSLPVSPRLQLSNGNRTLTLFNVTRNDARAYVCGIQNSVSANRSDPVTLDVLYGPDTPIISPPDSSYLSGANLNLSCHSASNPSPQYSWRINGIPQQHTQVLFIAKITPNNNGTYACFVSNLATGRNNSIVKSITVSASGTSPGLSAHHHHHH
Protocol: (§1) Surface plasmon resonance (SPR) experiments for quantitative binding analyses were performed either using a Biacore T100, Biacore T200 or a Biacore 4000 instrument (GE Healthcare Biacore, Inc.) equipped with Series S Sensor Chips CM5 (GE Healthcare Biacore, Inc.). Binding assays were carried out at 25° C. with assay buffer HBS-EP+(10 mM HEPES pH 7.4, 150 mM NaCl, 3 mM EDTA, 0.05% Surfactant P20). Antibodies were captured with an anti-hIgG capture antibody covalently immobilized to the chip surface via amine coupling chemistry. Reagents for amine coupling (1-ethyl-3-(3-dimethylaminopropyl) carbodiimide hydrochloride (EDC), N-hydroxysuccinimide (NHS), ethanolamine-HCl pH 8.5) were used from the Amine Coupling Kit (GE Healthcare, product code BR-1000-50). Anti-hIgG, anti-mIgG capture antibodies and immobilization buffer (10 mM sodium acetate pH 5.0) were used from the Human Antibody Capture Kit (GE Healthcare, BR-1008-39) and the Mouse Antibody Capture Kit (GE Healthcare, BR-1008-38), respectively. The sensor chip surface was activated with a freshly prepared solution of 0.2 M EDC and 0.05 M NHS passed over the chip surface for 420 s at a flow rate of 10 μl/min, followed by an injection of anti-hIgG or anti-mIgG capture antibody (dissolved to 25 μg/ml in immobilization buffer) for 180 s at a flow rate of […]. Excess of activated groups were blocked with a 1 molar solution of ethanolamine injected at a flow rate of 10 μl/min for 420 s.
(§2) CEACAM antigens were used as analyte to determine KD values. Antibodies were captured for 20 s at a flow rate of 10 μl/min prior to each analyte injection.
(§3) Obtained sensorgrams were double-referenced, i.e. in-line reference cell correction followed by buffer sample subtraction.

Q: Does B1 bind?
A: no binding (tested: 200 nM)

Q: Does B2 bind?
A: no binding (tested: 200 nM)

Q: Does B3 bind?
A: no binding (tested: 200 nM)

Q: Does B4 bind?
A: no binding (tested: 200 nM)

Q: Does B5 bind?
A: no binding (tested: 200 nM)

Q: Does B6 bind?
A: no binding (tested: 200 nM)

Q: Does B7 bind?
A: no binding (tested: 200 nM)

Q: Does B8 bind?
A: no binding (tested: 200 nM)

Target: T2, Macaca fascicularis CEACAM6, extracellular (mature form), obtained by Factor Xa cleavage of TPP-2443 (Macaca fascicularis)
T2 construct: used biotinylated in some assays; also called APP-319; Cynomolgus CEACAM6
T2 chain: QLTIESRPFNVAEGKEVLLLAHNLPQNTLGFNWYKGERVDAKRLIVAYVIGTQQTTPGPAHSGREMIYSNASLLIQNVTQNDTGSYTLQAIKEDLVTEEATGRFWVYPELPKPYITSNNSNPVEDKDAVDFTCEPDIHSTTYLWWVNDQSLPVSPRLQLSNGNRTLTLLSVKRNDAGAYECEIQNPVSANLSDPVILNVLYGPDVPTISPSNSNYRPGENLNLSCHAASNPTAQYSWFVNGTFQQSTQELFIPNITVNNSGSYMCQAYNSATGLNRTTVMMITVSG
Assay: SPR, antibody captured, antigen as analyte
Protocol: as §1, §2, §3

Q: How did the Kd turn out when B1 was run?
A: 27 nM

Q: With B2 as the binder, how does the Kd read?
A: 49 nM

Q: Which Kd does the source give for B3 here?
A: 54 nM

Q: With B4 as the binder, how does the Kd read?
A: 31 nM

Q: With B5 as the binder, how does the Kd read?
A: 32 nM

Q: For B6, which Kd is on record?
A: 32 nM

Q: How did the Kd turn out when B7 was run?
A: 25 nM

Each binder was assayed against T3, human CEACAM3, extracellular (mature form), Sino Biological Inc. 11933-H08H (human, UniProt P40198 35-155) (assay: SPR, antibody captured, antigen as analyte).
T3 construct: used biotinylated in some assays; also called TPP-2755
T3 sequence: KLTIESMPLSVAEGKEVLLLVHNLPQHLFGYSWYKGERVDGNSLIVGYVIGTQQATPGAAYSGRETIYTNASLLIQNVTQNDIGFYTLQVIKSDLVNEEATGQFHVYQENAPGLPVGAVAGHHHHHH
Protocol: as §1, §2, §3

Q: Does B1 bind?
A: no binding (tested: 200 nM)

Q: Does B2 bind?
A: no binding (tested: 200 nM)

Q: Does B3 bind?
A: no binding (tested: 200 nM)

Q: Does B4 bind?
A: no binding (tested: 200 nM)

Q: Does B7 bind?
A: no binding (tested: 200 nM)

Q: Does B8 bind?
A: no binding (tested: 200 nM)

These binders were tested against T4, human CEACAM6, extracellular (mature form), R&D Systems 3934-CM (human, UniProt P40199 35-320) (assay: SPR, antibody captured, antigen as analyte).
T4 construct: used biotinylated in some assays; also called TPP-1436; Recombinant human CEACAM6
T4 sequence: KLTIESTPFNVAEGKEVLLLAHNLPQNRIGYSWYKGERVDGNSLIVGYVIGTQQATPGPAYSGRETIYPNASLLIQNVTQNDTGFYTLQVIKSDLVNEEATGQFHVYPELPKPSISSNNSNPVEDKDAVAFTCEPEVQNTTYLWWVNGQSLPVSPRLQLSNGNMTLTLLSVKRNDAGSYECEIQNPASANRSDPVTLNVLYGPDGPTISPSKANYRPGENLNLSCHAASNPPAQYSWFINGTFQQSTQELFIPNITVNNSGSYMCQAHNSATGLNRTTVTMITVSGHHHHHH
Protocol: as §1, §2, §3

Q: How did the Kd turn out when B1 was run?
A: 13 nM

Q: Which Kd does the source give for B2 here?
A: 24 nM

Q: For B3, which Kd is on record?
A: 27 nM

Q: For B4, which Kd is on record?
A: 13 nM

Q: Which Kd does the source give for B5 here?
A: 28 nM

Q: With B6 as the binder, how does the Kd read?
A: 28 nM

Q: How did the Kd turn out when B7 was run?
A: 61 nM

Q: B8 was tested. Which Kd did it give?
A: 68 nM
